Legend:
人肿瘤细胞上的TR-2 (human) [1] = molecular target: 人肿瘤细胞上的TR-2 (human) (UniProt O14763); assay: cell-based or functional assay
人肿瘤细胞上的TR-2 (human) [2] = molecular target: 人肿瘤细胞上的TR-2 (human) (UniProt O14763); assay: cell-based assay, 10 μg/ml M412, anti-mouse IgG Fc-HRP, isotype control subtracted; CNS cancer line U251
人肿瘤细胞上的TR-2 (human) [3] = molecular target: 人肿瘤细胞上的TR-2 (human) (UniProt O14763); assay: cell-based assay, 10 μg/ml M412, anti-mouse IgG Fc-HRP, isotype control subtracted; lung cancer line A549
人肿瘤细胞上的TR-2 (human) [4] = molecular target: 人肿瘤细胞上的TR-2 (human) (UniProt O14763); assay: cell-based assay, 10 μg/ml M412, anti-mouse IgG Fc-HRP, isotype control subtracted; melanoma line UACC-62
人肿瘤细胞上的TR-2 (human) [5] = molecular target: 人肿瘤细胞上的TR-2 (human) (UniProt O14763); assay: cell-based assay, 10 μg/ml M412, anti-mouse IgG Fc-HRP, isotype control subtracted; CNS cancer line SF-295
人肿瘤细胞上的TR-2 (human) [6] = molecular target: 人肿瘤细胞上的TR-2 (human) (UniProt O14763); assay: cell-based assay, 10 μg/ml M412, anti-mouse IgG Fc-HRP, isotype control subtracted; melanoma line LOX IMVI
人肿瘤细胞上的TR-2 (human) [7] = molecular target: 人肿瘤细胞上的TR-2 (human) (UniProt O14763); assay: cell-based assay, 10 μg/ml M412, anti-mouse IgG Fc-HRP, isotype control subtracted; colon cancer line HT-29
人肿瘤细胞上的TR-2 (human) [8] = molecular target: 人肿瘤细胞上的TR-2 (human) (UniProt O14763); assay: cell-based assay, 10 μg/ml M412, anti-mouse IgG Fc-HRP, isotype control subtracted; colon cancer line KM-12
人肿瘤细胞上的TR-2 (human) [9] = molecular target: 人肿瘤细胞上的TR-2 (human) (UniProt O14763); assay: cell-based assay, 10 μg/ml M412, anti-mouse IgG Fc-HRP, isotype control subtracted; melanoma line RPMI 7951
人肿瘤细胞上的TR-2 (human) [10] = molecular target: 人肿瘤细胞上的TR-2 (human) (UniProt O14763); assay: cell-based assay, 10 μg/ml M412, anti-mouse IgG Fc-HRP, isotype control subtracted; breast cancer line T-47D
人肿瘤细胞上的TR-2 (human) [11] = molecular target: 人肿瘤细胞上的TR-2 (human) (UniProt O14763); assay: cell-based assay, 10 μg/ml M412, anti-mouse IgG Fc-HRP, isotype control subtracted; colon cancer line SW-707
人肿瘤细胞上的TR-2 (human) [12] = molecular target: 人肿瘤细胞上的TR-2 (human) (UniProt O14763); assay: cell-based assay, 10 μg/ml M412, anti-mouse IgG Fc-HRP, isotype control subtracted; colon cancer line SW-948
人肿瘤细胞上的TR-2 (human) [13] = molecular target: 人肿瘤细胞上的TR-2 (human) (UniProt O14763); assay: cell-based assay, 10 μg/ml M412, anti-mouse IgG Fc-HRP, isotype control subtracted; kidney cancer line SN12C
人肿瘤细胞上的TR-2 (human) [14] = molecular target: 人肿瘤细胞上的TR-2 (human) (UniProt O14763); assay: cell-based assay, 10 μg/ml M412, anti-mouse IgG Fc-HRP, isotype control subtracted; kidney cancer line UO-31
人肿瘤细胞上的TR-2 (human) [15] = molecular target: 人肿瘤细胞上的TR-2 (human) (UniProt O14763); assay: cell-based assay, 10 μg/ml M412, anti-mouse IgG Fc-HRP, isotype control subtracted; colon cancer line HCT-116
人肿瘤细胞上的TR-2 (human) [16] = molecular target: 人肿瘤细胞上的TR-2 (human) (UniProt O14763); assay: cell-based assay, 10 μg/ml M412, anti-mouse IgG Fc-HRP, isotype control subtracted; kidney cancer line Caki-1
人肿瘤细胞上的TR-2 (human) [17] = molecular target: 人肿瘤细胞上的TR-2 (human) (UniProt O14763); assay: cell-based assay, 10 μg/ml M412, anti-mouse IgG Fc-HRP, isotype control subtracted; kidney cancer line Caki-2
人肿瘤细胞上的TR-2 (human) [18] = molecular target: 人肿瘤细胞上的TR-2 (human) (UniProt O14763); assay: cell-based assay, 10 μg/ml M412, anti-mouse IgG Fc-HRP, isotype control subtracted; colon cancer line HCC-2998
人肿瘤细胞上的TR-2 (human) [19] = molecular target: 人肿瘤细胞上的TR-2 (human) (UniProt O14763); assay: cell-based assay, 10 μg/ml M412, anti-mouse IgG Fc-HRP, isotype control subtracted; ovarian cancer line IGROV1
人肿瘤细胞上的TR-2 (human) [20] = molecular target: 人肿瘤细胞上的TR-2 (human) (UniProt O14763); assay: cell-based assay, 10 μg/ml M412, anti-mouse IgG Fc-HRP, isotype control subtracted; prostate cancer line 22Rv1
人肿瘤细胞上的TR-2 (human) [21] = molecular target: 人肿瘤细胞上的TR-2 (human) (UniProt O14763); assay: cell-based assay, 10 μg/ml M412, anti-mouse IgG Fc-HRP, isotype control subtracted; prostate cancer line LNCaP
人肿瘤细胞上的TR-2 (human) [22] = molecular target: 人肿瘤细胞上的TR-2 (human) (UniProt O14763); assay: cell-based assay, 10 μg/ml M412, anti-mouse IgG Fc-HRP, isotype control subtracted; breast cancer line HS 578.T
人肿瘤细胞上的TR-2 (human) [23] = molecular target: 人肿瘤细胞上的TR-2 (human) (UniProt O14763); assay: cell-based assay, 10 μg/ml M412, anti-mouse IgG Fc-HRP, isotype control subtracted; liver cancer line NCI-SNU-1
人肿瘤细胞上的TR-2 (human) [24] = molecular target: 人肿瘤细胞上的TR-2 (human) (UniProt O14763); assay: cell-based assay, 10 μg/ml M412, anti-mouse IgG Fc-HRP, isotype control subtracted; prostate cancer line DU 145
人肿瘤细胞上的TR-2 (human) [25] = molecular target: 人肿瘤细胞上的TR-2 (human) (UniProt O14763); assay: cell-based assay, 10 μg/ml M412, anti-mouse IgG Fc-HRP, isotype control subtracted; breast cancer line MDA-MB-231
人肿瘤细胞上的TR-2 (human) [26] = molecular target: 人肿瘤细胞上的TR-2 (human) (UniProt O14763); assay: cell-based assay, 10 μg/ml M412, anti-mouse IgG Fc-HRP, isotype control subtracted; line A 673 (listed under leukemia)
人肿瘤细胞上的TR-2 (human) [27] = molecular target: 人肿瘤细胞上的TR-2 (human) (UniProt O14763); assay: cell-based assay, 10 μg/ml M412, anti-mouse IgG Fc-HRP, isotype control subtracted; non-small cell lung cancer line NCI-H460
人肿瘤细胞上的TR-2 (human) [28] = molecular target: 人肿瘤细胞上的TR-2 (human) (UniProt O14763); assay: cell-based assay, 10 μg/ml M412, anti-mouse IgG Fc-HRP, isotype control subtracted; non-small cell lung cancer line NCI-H2126
人肿瘤细胞上的TR-2 (human) [29] = molecular target: 人肿瘤细胞上的TR-2 (human) (UniProt O14763); assay: cell-based assay, 10 μg/ml M412, anti-mouse IgG Fc-HRP, isotype control subtracted; non-small cell lung cancer line HOP-62 (first mention)
人肿瘤细胞上的TR-2 (human) [30] = molecular target: 人肿瘤细胞上的TR-2 (human) (UniProt O14763); assay: cell-based assay, 10 μg/ml M412, anti-mouse IgG Fc-HRP, isotype control subtracted; non-small cell lung cancer line HOP-62 (second mention)

Sequence of UniProt O14763 (O14763 56-440): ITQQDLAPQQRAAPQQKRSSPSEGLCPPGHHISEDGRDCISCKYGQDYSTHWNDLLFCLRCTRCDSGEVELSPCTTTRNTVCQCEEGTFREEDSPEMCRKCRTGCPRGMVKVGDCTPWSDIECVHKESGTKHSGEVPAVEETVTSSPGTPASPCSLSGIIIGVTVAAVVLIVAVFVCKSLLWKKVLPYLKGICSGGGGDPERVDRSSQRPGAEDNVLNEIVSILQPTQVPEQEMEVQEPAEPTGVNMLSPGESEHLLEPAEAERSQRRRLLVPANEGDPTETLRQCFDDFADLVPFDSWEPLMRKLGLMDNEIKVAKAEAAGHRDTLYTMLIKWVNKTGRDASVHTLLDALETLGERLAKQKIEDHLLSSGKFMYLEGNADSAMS

ED50 (细胞存活减少50%, 3H-胸苷掺入), COLO 205细胞 (人肿瘤细胞上的TR-2 (human) [1]): 1.85 µg/mL
ED50 (细胞存活减少50%, 3H-胸苷掺入), MDA-231细胞 (人肿瘤细胞上的TR-2 (human) [1]): 0.6 µg/mL
ED50 (细胞存活减少50%, 3H-胸苷掺入), WM35细胞 (人肿瘤细胞上的TR-2 (human) [1]): 1.85 µg/mL
ED50 (细胞存活减少50%, 3H-胸苷掺入), WM793细胞 (人肿瘤细胞上的TR-2 (human) [1]): 1.85 µg/mL
OD450nm (人肿瘤细胞上的TR-2 (human) [2]): 0.323 OD450
OD450nm (人肿瘤细胞上的TR-2 (human) [3]): 0.381 OD450
OD450nm (人肿瘤细胞上的TR-2 (human) [4]): 0.319 OD450
OD450nm (人肿瘤细胞上的TR-2 (human) [5]): 0.354 OD450
OD450nm (人肿瘤细胞上的TR-2 (human) [6]): 0.573 OD450
OD450nm (人肿瘤细胞上的TR-2 (human) [7]): 0.869 OD450
OD450nm (人肿瘤细胞上的TR-2 (human) [8]): 0.77 OD450
OD450nm (人肿瘤细胞上的TR-2 (human) [9]): 0.322 OD450
OD450nm (人肿瘤细胞上的TR-2 (human) [10]): 0.366 OD450
OD450nm (人肿瘤细胞上的TR-2 (human) [11]): 0.323 OD450
OD450nm (人肿瘤细胞上的TR-2 (human) [12]): 0.423 OD450
OD450nm (人肿瘤细胞上的TR-2 (human) [13]): 0.313 OD450
OD450nm (人肿瘤细胞上的TR-2 (human) [14]): 0.331 OD450
OD450nm (人肿瘤细胞上的TR-2 (human) [15]): 0.41 OD450
OD450nm (人肿瘤细胞上的TR-2 (human) [16]): 0.93 OD450
OD450nm (人肿瘤细胞上的TR-2 (human) [17]): 0.443 OD450
OD450nm (人肿瘤细胞上的TR-2 (human) [18]): 0.635 OD450
OD450nm (人肿瘤细胞上的TR-2 (human) [19]): 0.312 OD450
OD450nm (人肿瘤细胞上的TR-2 (human) [20]): 0.301 OD450
OD450nm (人肿瘤细胞上的TR-2 (human) [21]): 0.63 OD450
OD450nm (人肿瘤细胞上的TR-2 (human) [22]): 0.403 OD450
OD450nm (人肿瘤细胞上的TR-2 (human) [23]): 0.354 OD450
OD450nm (人肿瘤细胞上的TR-2 (human) [24]): 0.372 OD450
OD450nm (人肿瘤细胞上的TR-2 (human) [25]): 0.408 OD450
OD450nm (人肿瘤细胞上的TR-2 (human) [26]): 0.347 OD450
OD450nm (人肿瘤细胞上的TR-2 (human) [27]): 0.326 OD450
OD450nm (人肿瘤细胞上的TR-2 (human) [28]): 0.501 OD450
OD450nm (人肿瘤细胞上的TR-2 (human) [29]): 0.313 OD450
OD450nm (人肿瘤细胞上的TR-2 (human) [30]): 0.47 OD450
B1: 小鼠抗TR-2抗体M412 (antibody, mouse IgG1, V domains shown)
VH: KVQLQQSGTELVKPGASVKLSCKASGYTFTEYIIHWVKQRSGQGLEWIGWFYPGSGYIKYNEKFKDKATMTADKSSSTVYMELSRLTSEDSAVYFCTRHEEDGYYAAYWGQGTLVTVSA
VL: DIVMTQSHKFMSTSVGDRVSITCKASQDVSSAVAWYQQKPGQSPKLLIYWASTRHTGVPDRFTGSGSGTDYTLTISSVQAEDLALYYCQQHYSTPYTFGGGTKLEIKR

— patent publication CN101300273A
